Broadly, the Kd is the equilibrium constant for the complex coming apart. In general, stoichiometry N refers to the number of molecules, sites or subunits per partner or assembly.

The target of the assay is full-length human RBBP4 (residues 1–425), recombinant (human, UniProt Q09028 1-425). Briefly: ITC. In general terms: Isothermal titration calorimetry measures the heat released or taken up as one component is titrated into another.
full-length human RBBP4 (residues 1–425), recombinant, sequence (Q09028 whole entry, the tested form may be a part): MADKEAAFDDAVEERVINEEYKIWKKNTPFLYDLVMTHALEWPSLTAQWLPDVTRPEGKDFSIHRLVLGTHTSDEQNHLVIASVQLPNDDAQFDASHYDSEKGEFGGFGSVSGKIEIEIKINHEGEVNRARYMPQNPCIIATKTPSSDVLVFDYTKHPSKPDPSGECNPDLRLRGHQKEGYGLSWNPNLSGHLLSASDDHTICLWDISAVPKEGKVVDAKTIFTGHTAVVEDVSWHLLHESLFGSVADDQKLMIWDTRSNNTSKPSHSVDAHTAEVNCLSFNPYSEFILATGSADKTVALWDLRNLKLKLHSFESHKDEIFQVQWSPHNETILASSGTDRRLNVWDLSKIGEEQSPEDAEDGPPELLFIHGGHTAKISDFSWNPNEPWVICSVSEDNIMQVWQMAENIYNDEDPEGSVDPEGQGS

B1: human PRDM16 peptide (residues 1–12) (peptide)
peptide: MRSKARARKLAK
As for B1, the Kd worked out at 3.15 µM and the “stoichiometry N” value is 1.

B2: human PRDM3 peptide (residues 1–12) (peptide)
peptide: MRSKGRARKLAT
As to B2, the Kd was found to be 2.96 µM and the “stoichiometry N” value was found to be 1.

Source of the values: PMC6379669 (Nucleic Acids Research, 2018).
